The target in the assay is T1, hUHRF1 tandem tudor domain, 10xHIS-TEV-TTD (aa 126-285) (human, UniProt Q96T88-1 126-285).
T1 sequence (looked up): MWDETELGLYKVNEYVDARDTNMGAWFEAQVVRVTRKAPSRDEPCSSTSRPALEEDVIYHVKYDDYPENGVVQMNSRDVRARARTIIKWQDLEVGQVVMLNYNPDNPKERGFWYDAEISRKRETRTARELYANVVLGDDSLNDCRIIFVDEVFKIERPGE
Briefly: MST.

B1: hUHRF1 Linker 4 (aa 605-675)-6xHIS (domain or fragment, human, UniProt Q96T88-1 605-675, looked up)
chain: MQYPEGYLEALANREREKENSKREEEEQQEGGFASPRTGKGKWKRKSAGGGPSRAGSPRRTSKKTKVEPYS
Consider B1, for which the binding result is listed as “binds”.

The values above are taken from article doi:10.1101/2021.08.04.455045 (bioRxiv, 2021).
